Assay results from patent publication US20240067751A1 (KEYMED BIOSCIENCES, published 2024).
Substitutions are numbered along the chain they refer to.

B1: h3H6 H1K1 (antibody, V domains shown)
VH: QVQLVQSGAEVKKPGSSVKVSCKASGYTFATYSIHWVRQAPGQGLEWMGYINPSSGYTNYNQKFQGRVTLTADKSTSTAYMELSSLRSEDTAVYYCARVYYTFYHAMDYWGQGTTVTVSS
VL: DIQMTQSPSSLSASVGDRVTITCRASQDVNTAVAWYQQKPGKAPKLLIYSASYRYTGVPSRFSGSGSGTDFTLTISSLQPEDFATYYCQQHYNIPLTFGGGTKVEIK
B2: h28O14 H4K1 (antibody, V domains shown)
VH: QVQLVQSGAEVKKPGSSVKVSCKASGYTFRSHTMHWVRQAPGQGLEWMGYINPSTGYINYNQKFQGRVTITADESTSTAYMELSSLRSEDTAVYYCARSNYAYYYGMDYWGQGTTVTVSS
VL: B1 VL
B3: h28O14 H2K1 (antibody, V domains shown)
VH: B2 VH with I70L
VL: B1 VL
B4: h16B11 H2K2 (antibody, V domains shown)
VH: QLQLQESGPGLVKPSETLSLTCTVSGYSITSDYAWNWIRQPPGKGLEWIGYISYSGRTSYNPSLKSRVTISRDTSKNQFSLKLSSVTAADTAVYYCARHYGDYWGQGTLVTVSS
VL: B1 VL with D28N, N30G, A32N, Y55E, T56S, Y87F, H91F, Y92N, N93T, I94N
B5: h28O14 H1K1 (antibody, V domains shown)
VH: B2 VH with I70L, E74K
VL: B1 VL
B6: h3H6 H3K1 (antibody, V domains shown)
VH: B1 VH with L70I
VL: B1 VL
B7: h3H6 H4K1 (antibody, V domains shown)
VH: B1 VH with L70I, K74E
VL: B1 VL
B8: h16B11 H3K2 (antibody, V domains shown)
VH: B4 VH with R72V
VL: B1 VL with D28N, N30G, A32N, Y55E, T56S, Y87F, H91F, Y92N, N93T, I94N
B9: h3H6 H2K1 (antibody, V domains shown)
VH: B1 VH with K74E
VL: B1 VL
B10: h28O14 H3K1 (antibody, V domains shown)
VH: B2 VH with E74K
VL: B1 VL
B11: h16B11 H1K2 (antibody, V domains shown)
VH: B4 VH with L2M
VL: B1 VL with D28N, N30G, A32N, Y55E, T56S, Y87F, H91F, Y92N, N93T, I94N
B12: h16B11 H1K1 (antibody, V domains shown)
VH: B4 VH with L2M
VL: DIQMTQSPSSLSASVGDRVTITCRASQNVGTNVAWYQQKPGKAPKALIYSASYRESGVPSRFSGSGSGTDFTLTISSLQPEDFATYFCQQFNTNPLTFGGGTKVEIK
B13: h16B11 H3K1 (antibody, V domains shown)
VH: B4 VH with R72V
VL: B12 VL
B14: h16B11 H1K3 (antibody, V domains shown)
VH: B4 VH with L2M
VL: B12 VL with E55Q
B15: h16B11 H3K3 (antibody, V domains shown)
VH: B4 VH with R72V
VL: B12 VL with E55Q
B16: h16B11 H2K3 (antibody, V domains shown)
VH: B4 VH
VL: B12 VL with E55Q
B17: h16B11 H2K1 (antibody, V domains shown)
VH: B4 VH
VL: B12 VL
B18: h16B11 H3K5 (antibody, V domains shown)
VH: B4 VH with R72V
VL: EIVMTQSPATLSVSPGERATLSCRASQNVGTNVAWYQQKPGQAPRLLIYSASYRESGIPARFSGSGSGTEFTLTISSLQSEDFAVYFCQQFNTNPLTFGGGTKVEIK
B19: h16B11 H1K6 (antibody, V domains shown)
VH: B4 VH with L2M
VL: B18 VL with L46A, E55Q
B20: h16B11 H2K5 (antibody, V domains shown)
VH: B4 VH
VL: B18 VL
B21: h16B11 H3K4 (antibody, V domains shown)
VH: B4 VH with R72V
VL: B18 VL with L46A
B22: h16B11 H3K6 (antibody, V domains shown)
VH: B4 VH with R72V
VL: B18 VL with L46A, E55Q
B23: h16B11 H1K5 (antibody, V domains shown)
VH: B4 VH with L2M
VL: B18 VL
B24: h16B11 H1K4 (antibody, V domains shown)
VH: B4 VH with L2M
VL: B18 VL with L46A
B25: h16B11 H2K6 (antibody, V domains shown)
VH: B4 VH
VL: B18 VL with L46A, E55Q
B26: h16B11 H2K4 (antibody, V domains shown)
VH: B4 VH
VL: B18 VL with L46A
B27: chimeric antibody 4F18 (antibody, V domains shown)
VH: EVQLQESGPGLVKPSQSLSLACTVTGYSITSDYAWHWIRQFPGNKLEWMGFISYSGRTNYNPPLTSRISITRDTSKNQFFLQLNSVTTEDTATYYCARSYDYWFGYWGQGTLVTVSA
VL: NVLMTQTPLSLPVSLGDQASISCRSSQSLVHSNGNTYLEWYMQKPGQSPKLLIYTVSRRFSGVPDRFSGSGSGTDFTLKISRVEAEDLGVYYCFQGSHVPVTFGAGTKLELK
notes: to be rechecked

Molecular target: T1, MASP-2 in human serum (human, UniProt O00187 16-686)
T1 sequence (O00187 16-686 limits assumed): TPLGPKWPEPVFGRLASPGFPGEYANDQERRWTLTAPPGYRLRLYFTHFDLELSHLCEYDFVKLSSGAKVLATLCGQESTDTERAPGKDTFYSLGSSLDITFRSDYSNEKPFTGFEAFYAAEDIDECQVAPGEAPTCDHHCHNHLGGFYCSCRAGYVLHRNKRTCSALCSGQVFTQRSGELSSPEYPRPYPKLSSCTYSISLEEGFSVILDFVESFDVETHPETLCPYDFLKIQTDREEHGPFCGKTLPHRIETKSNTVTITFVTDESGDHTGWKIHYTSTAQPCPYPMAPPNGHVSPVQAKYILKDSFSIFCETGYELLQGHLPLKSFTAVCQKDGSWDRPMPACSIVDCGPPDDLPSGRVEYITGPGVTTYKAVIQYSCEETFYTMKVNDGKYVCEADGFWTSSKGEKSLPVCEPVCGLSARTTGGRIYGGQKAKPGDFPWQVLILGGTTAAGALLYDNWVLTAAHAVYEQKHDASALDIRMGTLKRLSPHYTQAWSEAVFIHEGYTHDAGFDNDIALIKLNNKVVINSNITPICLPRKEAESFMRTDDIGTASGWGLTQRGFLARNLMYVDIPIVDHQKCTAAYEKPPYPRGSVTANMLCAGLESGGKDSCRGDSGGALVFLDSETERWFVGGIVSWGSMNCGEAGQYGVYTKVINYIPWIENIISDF
Test: cell-based or functional assay

First: B1
Second: B2
The “IC50, inhibition of C4b deposition” value of the first is 24-fold lower: 14 pM for the first, 338 pM for the second.

First: B3
Second: B4
The “IC50, inhibition of C4b deposition” value of the first is 10-fold higher: 324 pM for the first, 32 pM for the second.

First: B5
Second: B6
The “IC50, inhibition of C4b deposition” value of the first is 4.9-fold higher: 83 pM for the first, 17 pM for the second.

Going from B7 to B8, the “IC50, inhibition of C4b deposition” value rises from 90 pM to 1690 pM (19-fold).

B9 and B10 are within 1.5-fold of each other in “IC50, inhibition of C4b deposition” value: 86 pM for the first, 64 pM for the second.

Compared with B11, B12 is 2.5-fold lower in “IC50, inhibition of C4b deposition” value: 51 pM for the first, 20 pM for the second.

Going from B13 to B14, the “IC50, inhibition of C4b deposition” value falls from 98 pM to 21 pM (4.7-fold).

Compared with B15, B16 is 37-fold lower in “IC50, inhibition of C4b deposition” value: 440 pM for the first, 12 pM for the second.

For B17, the “IC50, inhibition of C4b deposition” value was 20 pM.

Molecular target: T1, MASP-2 in human serum
Test: cell-based or functional assay
Remark: another data set of the same source

First: B1
Second: B2
The “IC50, inhibition of C3b deposition” value of the first is 17-fold lower: 30 pM for the first, 506 pM for the second.

First: B3
Second: B4
The “IC50, inhibition of C3b deposition” value of the first is 17-fold higher: 483 pM for the first, 28 pM for the second.

First: B5
Second: B6
The “IC50, inhibition of C3b deposition” value of the first is 4.3-fold higher: 146 pM for the first, 34 pM for the second.

First: B7
Second: B8
The “IC50, inhibition of C3b deposition” value of the first is 2.6-fold lower: 151 pM for the first, 399 pM for the second.

B9 and B10 are within 1.5-fold of each other in “IC50, inhibition of C3b deposition” value: 151 pM for the first, 161 pM for the second.

First: B11
Second: B12
The “IC50, inhibition of C3b deposition” value of the first is 2.9-fold higher: 40 pM for the first, 14 pM for the second.

Going from B18 to B19, the “IC50, inhibition of C3b deposition” value falls from 440 pM to 18 pM (24-fold).

First: B13
Second: B20
The “IC50, inhibition of C3b deposition” value of the first is 1.9-fold higher: 60 pM for the first, 32 pM for the second.

First: B21
Second: B14
The “IC50, inhibition of C3b deposition” value of the first is 2.3-fold higher: 52 pM for the first, 23 pM for the second.

Compared with B15, B22 is 1.6-fold lower in “IC50, inhibition of C3b deposition” value: 112 pM for the first, 71 pM for the second.

Going from B23 to B24, the “IC50, inhibition of C3b deposition” value falls from 24 pM to 15 pM (1.6-fold).

B16 and B17 are within 1.5-fold of each other in “IC50, inhibition of C3b deposition” value: 18 pM for the first, 17 pM for the second.

B25 and B26 are within 1.5-fold of each other in “IC50, inhibition of C3b deposition” value: 18 pM for the first, 15 pM for the second.

Molecular target: T2, human MASP-2 D4-6 recombinant protein (human, UniProt O00187 298-686)
T2 construct: his6 tag fused at the N-terminus, made in HEK293E; also called enzymatic activity domains CCP1-CCP2-SP of human MASP-2
T2 sequence (O00187 other isoform, or with tags, fused parts or gaps limits assumed): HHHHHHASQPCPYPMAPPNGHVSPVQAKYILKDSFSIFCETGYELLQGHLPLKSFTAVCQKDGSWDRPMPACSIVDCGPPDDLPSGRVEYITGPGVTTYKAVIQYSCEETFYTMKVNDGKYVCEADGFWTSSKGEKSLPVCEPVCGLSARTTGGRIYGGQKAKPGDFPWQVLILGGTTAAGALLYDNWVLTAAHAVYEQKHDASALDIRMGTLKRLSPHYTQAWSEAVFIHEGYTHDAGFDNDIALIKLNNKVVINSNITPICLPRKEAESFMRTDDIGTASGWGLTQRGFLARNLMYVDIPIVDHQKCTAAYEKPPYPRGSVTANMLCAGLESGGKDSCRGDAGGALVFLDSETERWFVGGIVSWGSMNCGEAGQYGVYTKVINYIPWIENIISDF
Test: ELISA, antigen coated, chimeric IgG titrated, anti-human Fc-HRP

B27 showed an EC50 of 4 pM.

Molecular target: T3, Cynomolgus monkey MASP-2 D4-6 recombinant protein (Cynomolgus monkey, UniProt O00187 298-686 (human entry), limits assumed)
T3 construct: Made 'similarly' to the human protein (N-terminal his6 tag)
T3 sequence (O00187 other isoform, or with tags, fused parts or gaps limits assumed): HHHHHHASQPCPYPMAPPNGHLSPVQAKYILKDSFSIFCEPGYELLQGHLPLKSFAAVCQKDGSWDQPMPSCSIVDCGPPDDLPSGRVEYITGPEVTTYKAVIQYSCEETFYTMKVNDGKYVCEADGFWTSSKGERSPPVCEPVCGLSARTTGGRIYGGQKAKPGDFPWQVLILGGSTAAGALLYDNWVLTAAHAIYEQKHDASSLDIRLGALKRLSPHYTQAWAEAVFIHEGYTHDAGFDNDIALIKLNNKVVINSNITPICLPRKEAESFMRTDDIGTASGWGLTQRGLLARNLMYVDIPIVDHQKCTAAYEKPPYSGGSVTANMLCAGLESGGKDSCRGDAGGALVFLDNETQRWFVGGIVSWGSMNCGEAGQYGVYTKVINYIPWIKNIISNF
Test: as above

B27 was tested, and the EC50 was 3 pM.

Molecular target: T4, mouse MASP-2 D4-6 recombinant protein (mouse, UniProt Q91WP0 298-685)
T4 construct: Made 'similarly' to the human protein (N-terminal his6 tag)
T4 sequence (Q91WP0 other isoform, or with tags, fused parts or gaps limits assumed): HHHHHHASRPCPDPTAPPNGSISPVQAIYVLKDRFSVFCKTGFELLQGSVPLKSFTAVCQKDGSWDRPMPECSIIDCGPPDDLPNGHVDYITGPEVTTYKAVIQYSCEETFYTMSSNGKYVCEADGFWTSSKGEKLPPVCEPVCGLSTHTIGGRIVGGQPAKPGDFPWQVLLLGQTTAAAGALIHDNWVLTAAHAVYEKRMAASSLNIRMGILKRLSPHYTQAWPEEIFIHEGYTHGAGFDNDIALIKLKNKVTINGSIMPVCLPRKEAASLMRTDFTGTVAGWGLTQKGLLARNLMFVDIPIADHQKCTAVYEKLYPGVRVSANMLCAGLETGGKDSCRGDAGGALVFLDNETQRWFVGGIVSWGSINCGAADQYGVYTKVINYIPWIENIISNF
Test: as above

B27 was tested, and the EC50 was 287 pM.

Molecular target: T2, human MASP-2 D4-6 recombinant protein
Test: SPR Biacore T200, antibody on Protein A chip, antigen as analyte, 1:1 fit
Description: (§1) Surface plasmon resonance technology (SPR/Biacore T200) was used to capture 0.1 μg/ml of the antibody on the surface of the Protein A chip, with a capture time of 40 seconds and a flow rate of 10 μl/min. The chip was washed with buffer until the baseline leveled off, then gradient-diluted antigen was flowed through the chip at the flow rate of 30 μl/min, with a binding time of 120 sec and a dissociation time of 600 sec. The equilibrium dissociation constant (KD) was obtained by fitting in Langmuir 1:1 kinetics mode.

B27 showed a Kd of 108 pM.

Molecular target: T3, Cynomolgus monkey MASP-2 D4-6 …
Test: as above
Description: as §1

B27 showed a Kd of 24800 pM.

Molecular target: T4, mouse MASP-2 D4-6 recombinant protein
Test: as above
Description: as §1

With B27 the Kd was 218000 pM.
